Experiment [1] addresses Full-length His-tagged IL-17F protein (ab167911, Abcam) (human) (UniProt Q96PD4). Nature of the experiment: fluorescence titration of IL17F protein (nM) against the biotinylated biligand; protocol not described for this figure.
Experiment [2] deals with T1, Plasmodium falciparum Histidine Rich Protein-2 (Pf.HRP-2) (Plasmodium falciparum).
T1 construct: The construct used in the assays is not described; the whole entry is named
T1 chain: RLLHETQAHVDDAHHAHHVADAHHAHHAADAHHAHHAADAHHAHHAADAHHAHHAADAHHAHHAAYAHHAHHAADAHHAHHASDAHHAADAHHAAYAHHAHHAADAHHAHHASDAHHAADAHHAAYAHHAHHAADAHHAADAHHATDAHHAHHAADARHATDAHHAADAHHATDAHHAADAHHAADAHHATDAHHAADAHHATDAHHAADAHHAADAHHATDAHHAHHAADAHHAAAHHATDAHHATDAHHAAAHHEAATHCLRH
Nature of the experiment: plot 'Affinity': fraction bound against [Pf.HRP2] (molar); protocol not described.

The target of experiment [3] is T2, Full-length His-tagged IL-17F protein (ab167911, Abcam) (human, UniProt Q96PD4 31-163).
T2 construct: Bought protein, called 'full-length'; also called human IL-17F protein; not shown: His tag
T2 chain: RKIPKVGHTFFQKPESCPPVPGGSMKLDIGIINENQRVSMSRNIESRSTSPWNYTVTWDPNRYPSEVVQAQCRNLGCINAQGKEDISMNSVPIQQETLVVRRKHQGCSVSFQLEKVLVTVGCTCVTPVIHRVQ
Briefly: fluorescence titration of IL17F protein (nM) against the biotinylated biligand; protocol not described for this figure; the arrow from the number points to the PEG3 entry of the legend box.

Experiment [4] deals with T2, Full-length His-tagged IL-17F protein …. Nature of the experiment: method not stated, FIG. 12C; biligand with PEG3 linker.
Experiment [5] shares this target. Nature of the experiment: point ELISA, His-IL-17F vs His-IL-17A at 200 and 50 nM.
Experiment [6] has as its target T3, His-tagged IL-17F epitope scrambled N-terminal to click handle (C48S) (also: His6 tag, position and spacer not given here).
T3 construct: Chemically synthesized, His6 handle; residues N-terminal to C48S (FFQKPES) scrambled
T3 peptide: SQFEKFPSPPVPGGS
Nature of the experiment: point ELISA: ligand on NeutrAvidin plate, His-tagged epitope peptide at 2 uM, anti-His-AP detection, no-epitope background subtracted.

The target in experiment [7] is T4, Full-length His-tagged IL-17A protein (ab166882, Abcam) (human, UniProt Q16552 24-155).
T4 construct: Bought protein; it may not be the whole protein; also called human IL-17A protein; not shown: His tag
T4 sequence: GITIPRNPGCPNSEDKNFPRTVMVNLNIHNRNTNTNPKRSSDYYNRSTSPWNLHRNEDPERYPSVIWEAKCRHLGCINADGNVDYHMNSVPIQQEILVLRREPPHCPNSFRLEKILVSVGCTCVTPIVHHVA
Briefly: point ELISA, IL17F or IL17A at 100 nM, mean subtracted fluorescence; protocol not described for this panel.

Experiment [8] addresses T4, Full-length His-tagged IL-17A protein …. Briefly: point ELISA: ligand on NeutrAvidin plate, His-tagged protein at 100 nM, anti-His-AP detection, subtracted fluorescence.
Experiment [9] has as its target T2, Full-length His-tagged IL-17F protein …. Nature of the experiment: point ELISA, His-IL-17F vs His-IL-17A at 100 nM.
Experiment [10] deals with T1, Plasmodium falciparum Histidine Rich …. Briefly: method not stated, FIG. 15; two Cy(YKYYR) joined by about a 1.5 nm linker.

Bridge positions count the residues as written; N and C are the ends. Primed or numbered codes have the meaning given here. Ends that are not written are not given here. PEG3′ = not defined here

B1: Biotin-PEG3-Cy(RSYNK)(SEQ ID NO:28)-PEG2-Cy(RRATS)(SEQ ID NO:9) (designed binder)
peptide 1: RSYNK
peptide 2: RRATS
modifications: triazole (positions not given here); not fully specified (N-terminus, bridges); also: each chain triazole-cyclized macrocycle, positions not given here, macrocycles joined by PEG2 linker, attachment points not given here
Consider B1, for which the EC50 (read off the curve) in experiment [1] worked out at 4 nM.

B2: cy(YKYYR)(SEQ ID NO:29)-linker-cy(GWNVDL)(SEQ ID NO:30) biligand (designed binder)
peptide 1: YKYYR
peptide 2: GWNVDL
modifications: not fully specified (bridges)
notes: also called resultant biligand
With B2, a half-maximal response in [2] (EC50) required 0.542 nM.

B3: Biotin-PEG3-Cy(RSYNK)(SEQ ID NO:28)-PEG3-Cy(RRATS)(SEQ ID NO:9) (designed binder)
peptide 1: RSYNK
peptide 2: RRATS
modifications: not fully specified (N-terminus, bridges); also: macrocycles joined by PEG3 linker (one PEGylated amino acid), attachment not given here, triazole to a chain's N/C-terminus
notes: Two macrocycles covalently joined by one PEGylated amino acid; also called biligand Cy(RSYNK)-PEG3-Cy(RRATS)
On to B3, for which the EC50 in experiment [3] is about 0.25 nM. For the same molecule, binding in [4] was put at a Kd of 0.25 nM.

B4: Cy(RRATS)(SEQ ID NO:9)-PEG3-biotin (peptide)
peptide: RRATS-{PEG3′-biotin}
modifications: triazole N-C; also: flanking Pra and Az4 residues, sides not given here
notes: also called PEG3-biotin-modified Cy(RRATS)
On to B4, for which the “selectivity for IL-17F over IL-17A” value in experiment [5] was 2 ratio. In addition, in experiment [6], the binding result was “no binding (tested: 2 uM)”.

B5: Cy(RRAQS)(SEQ ID NO:10)-PEG3-biotin (peptide)
peptide: RRAQS-{PEG3′-biotin}
modifications: triazole N-C; also: flanking Pra and Az4 residues, sides not given here
notes: also called PEG3-biotin-modified Cy(RRAQS)
Consider B5, for which the “selectivity for IL-17F over IL-17A” value in experiment [5] is 2 ratio. Moreover, the binding result in experiment [6] is “no binding (tested: 2 uM)”.

B6: Cy(QKHGP)(SEQ ID NO:15)-PEG3-biotin (peptide)
peptide: QKHGP
modifications: triazole (positions not given here); not fully specified (N-terminus, C-terminus, bridges); also: triazole cyclization via flanking Pra and Az4 residues, order not given here, PEG3-biotin, end not given here
notes: also called PEG3-biotin-modified Cy(QKHGP)
In the case of B6, the binding result in experiment [7] is “no binding (tested: 100 nM)”.

B7: Cy(TKHGP)(SEQ ID NO:16)-PEG3-biotin (peptide)
peptide: TKHGP
modifications: triazole (positions not given here); not fully specified (N-terminus, C-terminus, bridges); also: triazole cyclization via flanking Pra and Az4 residues, order not given here, PEG3-biotin, end not given here
notes: also called PEG3-biotin-modified Cy(TKHGP)
As for B7, the binding result in experiment [8] is “no binding (tested: 100 nM)”.

B8: Biotin-PEG3-Cy(KKGWP)(SEQ ID NO:23) (peptide)
peptide: KKGWP
modifications: triazole N-C; not fully specified (N-terminus, C-terminus); also: flanking Pra and Az4 residues, sides not given here
notes: also called PEG3-biotin-modified Cy(KKGWP)
On to B8, for which, in experiment [9], the “selectivity for IL-17F over IL-17A” value worked out at 4 ratio.

B9: Biotin-PEG3-Cy(RSYNK)(SEQ ID NO:28) (peptide)
peptide: RSYNK
modifications: triazole N-C; not fully specified (N-terminus, C-terminus); also: flanking Pra and Az4 residues, sides not given here
notes: also called PEG3-biotin-modified Cy(RSYNK)
As for B9, in experiment [9], the “selectivity for IL-17F over IL-17A” value is 4 ratio.

B10: Biotin-PEG3-Cy(RSYNK)(SEQ ID NO:28)-PEG5-Cy(RRATS)(SEQ ID NO:9) (designed binder)
peptide 1: RSYNK
peptide 2: RRATS
modifications: triazole (positions not given here); not fully specified (N-terminus, bridges); also: each chain triazole-cyclized macrocycle, positions not given here, macrocycles joined by PEG5 linker, attachment points not given here
Molecule B10 registered an EC50 (read off the curve) in [1] of 4 nM.

B11: YKYYR (SEQ ID NO:29) dimer (designed binder)
peptide: YKYYR
modifications: not fully specified (bridges)
notes: also called two Cy(YKYYR) PCCs linked together with about a 1.5 nm long linker; linked biligand
Regarding B11, the EC50 in experiment [10] turned out to be 20 nM.

For the origin of these results see US20210025901A1 (CALIFORNIA INSTITUTE OF TECHNOLOGY, published 2021).
